Data: the supplement of paper PMC12764529
± gives the half width of the 95% confidence interval.

Assays:
[1] = folding stability dG unfold from trypsin proteolysis; higher = more stable
Method in brief: (§1)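 Mini-proteins designed to be under 80 residues and free of cysteine were carried in a PA-tagged cDNA display construct and digested with trypsin and with chymotrypsin. Each protease was applied at 11 threefold-diluted concentrations, alongside a no-protease condition, before sequencing. K50 came from Bayesian fitting of the sequencing counts, and unfolding free energy was obtained by comparing it with a sequence-predicted unfolded-state K50 and a shared folded-state K50, for each protease separately or for both together. Designs were retained only if their AlphaFold2 dimer inter-PAE exceeded 15.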

[2] = folding stability dG unfold from chymotrypsin proteolysis; higher = more stable
Method in brief: as §1

[3] = folding stability dG unfold (combined trypsin and chymotrypsin); higher = more stable
Method in brief: as §1

| Sequence | folding stability dG unfold [1] | folding stability dG unfold [2] | folding stability dG unfold [3] |
| --- | --- | --- | --- |
| SAGGSAMPPNMKKVPISIHIPAENYKRDPDGKWKFTADELARHIQRGFRQRFGMPIKKIDVHVHPPSAGGSA [r15_415_TrROS] | -0.000463 ± 0.31 kcal/mol | 0.00448 ± 0.31 kcal/mol | -0.0271 ± 0.21 kcal/mol |
| SAGGSAMRMERIKLPDGKDITIMRHPNEPRQYQLFFPGGRSISVNFPSPEEAIDHALEWIKNGKPFSAGGSA [r15_38_TrROS] | 0.609 ± 0.12 kcal/mol | 0.764 ± 0.13 kcal/mol | 0.78 ± 0.097 kcal/mol |
| SAGGSAMSIPLEELIEYVKKPGYKITEKKLPNGTLEITITNPKTGKTTKVTVYPPPTFSVEIKPDPSAGGSA [r15_442_JUSTAS] | 1.28 ± 0.034 kcal/mol | 0.876 ± 0.12 kcal/mol | 1.07 ± 0.091 kcal/mol |
| SAGGSAMSKDVLFENGARITKFFPGKNYVIIETSPENPELLKELGITVIKEGPNRIIVPAKDFLDESAGGSA [r15_984_TrMRF] | -1.28 ± 0.74 kcal/mol | -0.821 ± 0.78 kcal/mol | -0.864 ± 0.8 kcal/mol |
| SAGGSAMSLSDIKDVDVYRNPNGWYTAKLKIKDPNNGKDKEVNIHVPPGQTPEKAKNIAREILKELSAGGSA [r15_181_TrROS] | 0.606 ± 0.03 kcal/mol | 1.43 ± 0.11 kcal/mol | 1.14 ± 0.086 kcal/mol |
| SAGGSAMSVDPVGERTTITILYKDKPVTVPTGPLEEVEREVAAVLEEIEAKTGRKISPDTEVSFVPSAGGSA [r15_496_JUSTAS] | -0.283 ± 0.3 kcal/mol | 0.595 ± 0.17 kcal/mol | 0.318 ± 0.16 kcal/mol |
| SAGGSAMTAEELARKLFPGAEVEVEVRLERNEDGSLSLRVEVRVRAAPPPEEEEVEEPEEVEEEEESAGGSA [r15_417_TrROS_Hall] | 2.78 ± 0.16 kcal/mol | 1.99 ± 0.052 kcal/mol | 2.2 ± 0.28 kcal/mol |
| SAGGSAMTAEELKGMKVKITLKNGKKIEAKIKKVEVINGEIYIEIDGKKIKLKKNEKYKIEIVEKKSAGGSA [r15_355_TrROS_Hall] | 1.84 ± 0.093 kcal/mol | 2.22 ± 0.067 kcal/mol | 2.06 ± 0.16 kcal/mol |
| SAGGSAMTIEIEAPVPAGVEVDATALFVTPDGYLYLAEVRSVGPGWARITIPVYRFDDNLDDPDFLSAGGSA [r15_909_TrMRF] | 2.04 ± 0.045 kcal/mol | 2.19 ± 0.042 kcal/mol | 2.17 ± 0.051 kcal/mol |
| SAGGSAMTITEDGTLTLEIKVPEDAPEATVKVTVLTDGKTLGEADPATGKVTLKVPPDVEVKVEVASAGGSA [r15_180_TrMRF] | 1.09 ± 0.074 kcal/mol | 1.87 ± 0.045 kcal/mol | 1.69 ± 0.13 kcal/mol |
| SAGGSAMTITVTEETDPNTDRKTTTVSLSPGVSEEVLEELKAEAEKKGAKLTVYPEEGVVTVVTPESAGGSA [r15_542_JUSTAS] | 0.0631 ± 0.052 kcal/mol | 0.311 ± 0.065 kcal/mol | 0.224 ± 0.17 kcal/mol |
| SAGGSAMTITVTLTFKSEEEALAAIRELAEALGLEIESVEIRYDPETEEVTVTATIRLPPPPPELLSAGGSA [r15_254_TrROS_Hall] | 2.73 ± 0.16 kcal/mol | 2.62 ± 0.033 kcal/mol | 2.75 ± 0.11 kcal/mol |
| SAGGSAMTKEEAKEYAEKRVKEEHPGWTVLGVEVTELPGKEVLTKVTVKPPENPDKTLEFEFKFPLSAGGSA [r15_627_JUSTAS] | 2.34 ± 0.1 kcal/mol | 2.61 ± 0.035 kcal/mol | 2.54 ± 0.072 kcal/mol |
| SAGGSAMTPEEARARAEAIAEELAAEARAAGRAAEVTVEVTELPPELYRFTITFPGRTREVLLPVESAGGSA [r15_432_JUSTAS] | -0.18 ± 0.18 kcal/mol | -0.262 ± 0.15 kcal/mol | -0.16 ± 0.13 kcal/mol |
| SAGGSAMTPEELANVTVEVVTTTEPASPDLTLPDGTRLPPSTTVTTTTEVVVLPGGELLGTRVTVASAGGSA [r15_12_JUSTAS] | -0.375 ± 0.051 kcal/mol | 1.03 ± 0.023 kcal/mol | 0.644 ± 0.043 kcal/mol |
| SAGGSAMTTTTSTDPATNKTYVTVTFPKDEALVEEVKEELKKKGIKEIKVYEFPENDLVRVEITVGSAGGSA [r2_358_JUSTAS] | 0.452 ± 0.098 kcal/mol | 0.767 ± 0.13 kcal/mol | 0.685 ± 0.14 kcal/mol |
| SAGGSAMTVKVRLRVRRRVFNEDGELVAEEELELEVEVEVRPPPPPPPPPLTAEELAEKLGLEPEDSAGGSA [r15_572_TrROS_Hall] | 2.52 ± 0.093 kcal/mol | 3.37 ± 0.074 kcal/mol | 3.19 ± 0.39 kcal/mol |
| SAGGSAMTVTTLPDGSTVIHLPSGTTITITTAPDGTKPITITPPDGVPTTFPASVSLEDAIKAALSSAGGSA [r15_371_JUSTAS] | 3.58 ± 0.044 kcal/mol | 2.67 ± 0.034 kcal/mol | 3.1 ± 0.032 kcal/mol |

| Sequence | folding stability dG unfold [1] | folding stability dG unfold [2] | folding stability dG unfold [3] |
| --- | --- | --- | --- |
| SAGGSAMVETKTFEFEFEFEFENPDGEPATVTVPVTVEVPVLVPVAAPGPPGANGPEKELEELEKESAGGSA [r15_728_TrMRF] | 1.05 ± 0.096 kcal/mol | 0.641 ± 0.065 kcal/mol | 0.782 ± 0.13 kcal/mol |
| SAGGSAMVMITIKIKFPGNEVEINMPAEDLDELLSHPELGDNFEITEIEVMPIPPPPVDPEQAEEKSAGGSA [r15_460_TrROS] | 1.21 ± 0.15 kcal/mol | 0.885 ± 0.11 kcal/mol | 1.03 ± 0.24 kcal/mol |
| SAGGSAMVTPEERVEAALAYIRGKYGFPLSATPAQLREAGLPVRVELTVTDADGRPLATVTLEIPGSAGGSA [r15_391_TrMRF] | 1.39 ± 0.037 kcal/mol | 1.78 ± 0.089 kcal/mol | 1.65 ± 0.07 kcal/mol |
| SAGGSAMVTVTRYPDGTYVVEATGRGDSRTFTLDLPLEEIKEVLEKEGIKIDKIEVKPAPVDPAKVSAGGSA [r15_576_JUSTAS] | 1.268 ± 0.012 kcal/mol | 1.5 ± 0.034 kcal/mol | 1.4 ± 0.05 kcal/mol |
| SAGGSAMVVTVPASSLTPESIRALARENPGPVELVFPEEGRRVTVEVRGDGVVRVEEHPLDPAELASAGGSA [r15_751_JUSTAS] | -1.07 ± 0.19 kcal/mol | -0.536 ± 0.1 kcal/mol | -0.621 ± 0.083 kcal/mol |
| SAGGSAMYEVTEEKDPNSDYTTVTITFPNGATVTITYNPKTNTITADVDPAVDPEVAAAAAKAVLSSAGGSA [r15_511_JUSTAS] | 1.92 ± 0.067 kcal/mol | 2.39 ± 0.028 kcal/mol | 2.23 ± 0.071 kcal/mol |
| SAGGSANNPKPRIIEIPIQFDWPPGDPQQMRNLAETIADEFSDPGYRVEIDEFTPDYFMFNIKIEWSAGGSA [r15_563_TrROS] | 2.13 ± 0.1 kcal/mol | 2.937 ± 0.025 kcal/mol | 2.72 ± 0.12 kcal/mol |
| SAGGSAPDNKPKPVVREVEFWIMIPFKSAEQAKEIVEELMKFFGGLKVEILEVHPDGYAMIKITIYSAGGSA [r15_387_TrROS] | 3.68 ± 0.13 kcal/mol | 5.38 ± 0.072 kcal/mol | 5.15 ± 0.11 kcal/mol |
| SAGGSAPEPVEFTLGHPDGVPYRVTLTRLPDTDLYLVTVEFPGPEVTFTGVAPLEVLENIPGLTPVSAGGSA [r15_622_TrMRF] | 1.53 ± 0.035 kcal/mol | 1.88 ± 0.09 kcal/mol | 1.72 ± 0.068 kcal/mol |
| SAGGSAPESVKPPVVVVTLVLEFPDGRKLTIPVAHEELAEALEVALALPLALEHDTKLVKVEKANVSAGGSA [r15_140_TrMRF] | 0.265 ± 0.12 kcal/mol | 0.736 ± 0.16 kcal/mol | 0.558 ± 0.15 kcal/mol |
| SAGGSAPEVRLSASREGNTVTVLALKPVGDRTYLVVTTYEVRELGEGFLVLSSSEVIPLPDGEGFFSAGGSA [r15_725_TrMRF] | 1.626 ± 0.015 kcal/mol | 2.66 ± 0.044 kcal/mol | 2.36 ± 0.032 kcal/mol |
| SAGGSAPFVPPGFVKSVEEFEVTFPDGSKYRVTLIEVDGGPLVLVEKPGVGEPKTLPFEKLLELLASAGGSA [r15_329_TrMRF] | 1.88 ± 0.11 kcal/mol | 1.36 ± 0.075 kcal/mol | 1.73 ± 0.13 kcal/mol |
| SAGGSAPKPDWIVRIEITVKFPGKTKKIDIVIDSPEALNQIINELKDEGFKDVEPKIEWVPLEEMKSAGGSA [r15_1015_TrROS] | 0.296 ± 0.089 kcal/mol | 1.21 ± 0.17 kcal/mol | 0.915 ± 0.26 kcal/mol |
| SAGGSAPKTVTFTTPKGYPITVTPGDRTVTLTHPDRPLATFDVPPDVPTFTITLPDGDTATITVDDSAGGSA [r2_385_TrMRF] | -0.581 ± 0.088 kcal/mol | -0.408 ± 0.19 kcal/mol | -0.446 ± 0.11 kcal/mol |
| SAGGSAPPNIEREEYEFYLRNPDGKELGPAKIEVIRDPGDPDRPILTIEWPNGEPMLFDADDIEPLSAGGSA [r15_954_TrROS] | 0.18 ± 0.052 kcal/mol | 0.384 ± 0.17 kcal/mol | 0.317 ± 0.19 kcal/mol |
| SAGGSAPPPIKIKFKYPNGRPMELEFNPENGNYEIKQPDGEKEEVPMENIKEIRIPPGIKDVEIVPSAGGSA [r15_1043_TrROS] | -0.579 ± 0.27 kcal/mol | -0.0709 ± 0.41 kcal/mol | < -1 kcal/mol |
| SAGGSAPPPKWIMFKIEATMPPNDLDNVVEELLKILFGFKIKNIEVEWEQVKDGYYKVPVWVMIRFSAGGSA [r15_138_TrROS] | 3.01 ± 0.41 kcal/mol | 4.05 ± 0.093 kcal/mol | 4.12 ± 0.4 kcal/mol |
| SAGGSAPPTYTFMIPIKEIYVPDPDNGKPKPIPVEEFADFLMPKFGIDVEILDVHPDWIQITVTPDSAGGSA [r15_55_TrROS] | 1.81 ± 0.11 kcal/mol | 1.49 ± 0.091 kcal/mol | 1.73 ± 0.19 kcal/mol |
